# According to the supplement of paper PMC10567573:
# B1: C8orf76 (parent)
# chain: YCAKLCEPQWFYEETESSDDVEVL
# B2: PBXIP1 (parent)
# chain: FGEDGIFRHDRLRFRDFVDALEDS
# Variants of: B1
# Assay: protein stability index of a GFP-peptide fusion (GPS, HEK-293T) (PSI 1-6); higher = more stable
# Details: c terminus: a fixed tail appended
# 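Also: lentivirally expressed fusions sorted by FACS into six bins by GFP to DsRed ratio, PSI derived from sequencing read proportions per bin multiplied by bin number.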
row,Variant,protein stability index
1,YCAKLCEPQWFYEETESSDPVEVL [D20P],1.81
2,YCAKLCEPQWFYEETESSDAVEVL [D20A],2.27
3,YCAKLCEPQWFYEETESSDRVEVL [D20R],1.5
4,YCAKLCEPQWFYEETVSSDDVEVL [E16V],1.53
5,YCAKLCEPQWFYEETMSSDDVEVL [E16M],2.31
6,YCATLCEPQWFYEETESSDDVEVL [K4T],2.94
7,YCAKLCEPQWFYEEIESSDDVEVL [T15I],1.91
8,YCAKLCEPQWFYEEPESSDDVEVL [T15P],2.84
9,YCAKLCEPQWFYEYTESSDDVEVL [E14Y],2.04
10,YCAKLCEPQWFYESTESSDDVEVL [E14S],2.15
11,YCAKLCEPQWFYECTESSDDVEVL [E14C],1.8
12,YGAKLCEPQWFYEETESSDDVEVL [C2G],3.72
13,YYAKLCEPQWFYEETESSDDVEVL [C2Y],2.87
14,YCAKKCEPQWFYEETESSDDVEVL [L5K],2.05
15,YCAKECEPQWFYEETESSDDVEVL [L5E],2.94
16,YCAKLCEPQWFEEETESSDDVEVL [Y12E],3.35
17,YCWKLCEPQWFYEETESSDDVEVL [A3W],1.95

row,Variant,protein stability index
1,YCAKLCEPQQFYEETESSDDVEVL [W10Q],4.45
2,YCAKLCEPQWFYEETESSMDVEVL [D19M],1.58
3,YCAKLCEPQWFYEETESSDDHEVL [V21H],2.27
4,YCAKLCEPQWFYEETESSDDQEVL [V21Q],2.53
5,YCAKLCEPQWQYEETESSDDVEVL [F11Q],3.57
6,YCAKLCEPQWFYIETESSDDVEVL [E13I],2.1
7,YCAKLCEPQWFYPETESSDDVEVL [E13P],1.92
8,YCAKLCEPQWFYNETESSDDVEVL [E13N],1.6
9,YCAKLTEPQWFYEETESSDDVEVL [C6T],1.84
10,YCAKLEEPQWFYEETESSDDVEVL [C6E],3.63
11,YCAKLDEPQWFYEETESSDDVEVL [C6D],2.93
12,YCAKLFEPQWFYEETESSDDVEVL [C6F],2.41
13,YCAKLCEPQWFYEETESKDDVEVL [S18K],2.28
14,YCAKLCEPQWFYEETESHDDVEVL [S18H],2.06
15,YCAKLCEPQWFYEETESSDDVETL [V23T],2.17
16,YCAKLCEPQWFYEETESSDDVDVL [E22D],1.98
17,YCAKLCEPQWFYEETESSDDVPVL [E22P],2.33

# Variants of: B2
# Assay: as above
# Details: c terminus: a fixed tail appended
row,Variant,protein stability index
1,FGEDGEFRHDRLRFRDFVDALEDS [I6E],4.52
2,FGEDGQFRHDRLRFRDFVDALEDS [I6Q],3.86
3,FGEDGFFRHDRLRFRDFVDALEDS [I6F],1.33
4,FGEDGKFRHDRLRFRDFVDALEDS [I6K],2.7
5,FGEDGIFRHDRLRFRDFVDALEDN [S24N],3.15
6,FGEDGIFRHDRLRFRDFVDALEDE [S24E],2.24
7,FGEDGIFRHDRLRFRDFVDALEDR [S24R],2.76
8,FGEDGIFRHDRLRFRDFVDALEDC [S24C],3.48
9,NGEDGIFRHDRLRFRDFVDALEDS [F1N],3.81
10,LGEDGIFRHDRLRFRDFVDALEDS [F1L],3.14
11,FGEDGIFRHDRLRFRDFVDALEIS [D23I],1.93
12,FGEDGIFRHDRLRFRDFVDALEWS [D23W],1.84
13,FGEDGIFRHDRLRFRDFVDALEQS [D23Q],2.82
14,FGEDGIFRHDRLRFVDFVDALEDS [R15V],2.02
15,FGEDGIFRHDRLRFKDFVDALEDS [R15K],2.9
16,FGEDGIFRHDRLRFSDFVDALEDS [R15S],2.54
17,FGEDGIFRHDRLRFRDFVDKLEDS [A20K],3.6
18,FGEDGIFRHDRLRFRDFVDVLEDS [A20V],2.49
19,FGEDGIFRHDRLRFRDFVDALIDS [E22I],1.76
20,FGEDGIFRHDRLRFRDFVDALGDS [E22G],2.05

row,Variant,protein stability index
1,FGEDGIFRHDRHRFRDFVDALEDS [L12H],2.73
2,FGEDGIFRHDRYRFRDFVDALEDS [L12Y],2.71
3,FGEDGIFRHDRLIFRDFVDALEDS [R13I],2.26
4,FGEDGIFRHDRLGFRDFVDALEDS [R13G],2.9
5,FGEDGIFRHDRLRFRDRVDALEDS [F17R],3.69
6,FGEDGIFRHDRLRFRDTVDALEDS [F17T],3.61
7,FGEDGIFYHDRLRFRDFVDALEDS [R8Y],2.46
8,FGEDGINRHDRLRFRDFVDALEDS [F7N],4.02
9,FGEDGIIRHDRLRFRDFVDALEDS [F7I],3.51
10,FGEDGIARHDRLRFRDFVDALEDS [F7A],3.42
11,FGEDGIERHDRLRFRDFVDALEDS [F7E],4.84
12,FGEDGIFRFDRLRFRDFVDALEDS [H9F],2.26
13,FGEDGIFREDRLRFRDFVDALEDS [H9E],3.5
14,FGRDGIFRHDRLRFRDFVDALEDS [E3R],3.02
15,FGIDGIFRHDRLRFRDFVDALEDS [E3I],2.91
16,FGWDGIFRHDRLRFRDFVDALEDS [E3W],2.18
17,FGEDGIFRHDRLRFRDFVDAPEDS [L21P],3.65
18,FGEDGIFRHDRLRFRDFVDADEDS [L21D],3.68
19,FGEDGIFRHDRLRMRDFVDALEDS [F14M],3.23
20,FGEDGIFRHDRLRHRDFVDALEDS [F14H],2.87

row,Variant,protein stability index
1,FGEDGIFRHDRLRARDFVDALEDS [F14A],3.43
2,FGEDGIFRHDRLRGRDFVDALEDS [F14G],3.67
3,FGEDGIFRHDRLRDRDFVDALEDS [F14D],3.84
4,FGEDGIFRHERLRFRDFVDALEDS [D10E],2.63
5,FGEDGIFRHDFLRFRDFVDALEDS [R11F],2.5
6,FGEDGIFRHDHLRFRDFVDALEDS [R11H],2.83
7,FGEHGIFRHDRLRFRDFVDALEDS [D4H],1.89
8,FGEDGIFRHDRLRFRDFVLALEDS [D19L],1.61
9,FGEDGIFRHDRLRFRQFVDALEDS [D16Q],2.42
10,FGEDGIFRHDRLRFREFVDALEDS [D16E],3.17
11,FGEDGIFRHDRLRFRFFVDALEDS [D16F],2.12
12,FGEDAIFRHDRLRFRDFVDALEDS [G5A],3.02
13,FGEDVIFRHDRLRFRDFVDALEDS [G5V],3.19
14,FGEDNIFRHDRLRFRDFVDALEDS [G5N],2.34
15,FGEDLIFRHDRLRFRDFVDALEDS [G5L],2.54
16,FGEDEIFRHDRLRFRDFVDALEDS [G5E],3.68
17,FVEDGIFRHDRLRFRDFVDALEDS [G2V],2.26
18,FREDGIFRHDRLRFRDFVDALEDS [G2R],2.69
19,FGEDGIFRHDRLRFRDFGDALEDS [V18G],3.16
20,FGEDGIFRHDRLRFRDFLDALEDS [V18L],3.32
